Experiment [1] has as its target T1, FcγRIa extracellular domain with C-terminal His tag (human, UniProt P12314 16-292).
T1 construct: extracellular domain; expressed in FreeStyle293 cells; analyte in Biacore; also called FcgRI; 1a
Briefly: SPR (Biacore), captured antibody, FcγR as analyte; relative binding.

For experiment [2], the target named is T2, FcγRIIb extracellular domain with C-terminal His tag (human, UniProt P31994 43-217).
T2 construct: extracellular domain; expressed in FreeStyle293 cells; analyte in Biacore; also called FcgRIIb; 2b
T2 sequence (looked up): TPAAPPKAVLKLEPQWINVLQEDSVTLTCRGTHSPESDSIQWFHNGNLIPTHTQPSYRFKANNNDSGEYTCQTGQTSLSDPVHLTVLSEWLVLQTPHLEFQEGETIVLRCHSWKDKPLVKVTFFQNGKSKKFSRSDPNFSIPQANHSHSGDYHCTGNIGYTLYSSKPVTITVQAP
The experiment is described as above.

T1 sequence (P12314 16-292): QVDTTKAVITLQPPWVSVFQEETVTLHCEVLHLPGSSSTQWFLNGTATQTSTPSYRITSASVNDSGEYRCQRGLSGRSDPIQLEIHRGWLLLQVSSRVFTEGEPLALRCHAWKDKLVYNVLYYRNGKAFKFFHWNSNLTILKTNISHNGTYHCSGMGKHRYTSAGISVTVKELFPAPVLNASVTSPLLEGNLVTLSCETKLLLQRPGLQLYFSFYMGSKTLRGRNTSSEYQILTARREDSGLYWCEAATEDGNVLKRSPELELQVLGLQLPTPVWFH

B1: GpH7-A5/GpH7-B3 variant Y300_03V/GpL16-k0 (antibody, human IgG1, kappa)
heavy 1: not shown
heavy 2: not shown
light: DIVMTQSPLSLPVTPGEPASISCQASESLVHSNRNTYLHWYLQKPGQSPQLLIYKVSNRFSGVPDRFSGSGSGTDFTLKISRVEAEDVGVYYCSQNTHVPPTFGQGTKVEIERTVAAPSVFIFPPSDEQLKSGTASVVCLLNNFYPREAKVQWKVDNALQSGNSQESVTEQDSKDSTYSLSSTLTLSKADYEKHKVYACEVTHQGLSSPVTKSFNRGEC
notes: He Ab; IgG1, mutation in one H chain
With B1, in experiment [1], the He/Con_1a was 117 % of HeCon Ab (GpH7-A5/GpH7-B3/GpL16-k0 = 100). Moreover, in experiment [2], the He/Con_2b is 73.9 % of HeCon Ab (GpH7-A5/GpH7-B3/GpL16-k0 = 100).

B2: GpH7-A5/GpH7-B3 variant Y296_14T/GpL16-k0 (antibody, human IgG1, kappa)
heavy 1: not shown
heavy 2: not shown
light: DIVMTQSPLSLPVTPGEPASISCQASESLVHSNRNTYLHWYLQKPGQSPQLLIYKVSNRFSGVPDRFSGSGSGTDFTLKISRVEAEDVGVYYCSQNTHVPPTFGQGTKVEIERTVAAPSVFIFPPSDEQLKSGTASVVCLLNNFYPREAKVQWKVDNALQSGNSQESVTEQDSKDSTYSLSSTLTLSKADYEKHKVYACEVTHQGLSSPVTKSFNRGEC
notes: as for B1
Turning to B2, the He/Con_1a in experiment [1] was 105 % of HeCon Ab (GpH7-A5/GpH7-B3/GpL16-k0 = 100). Moreover, the He/Con_2b in experiment [2] was 88.2 % of HeCon Ab (GpH7-A5/GpH7-B3/GpL16-k0 = 100).

B3: GpH7-A5/GpH7-B3 variant Y296_12R/GpL16-k0 (antibody, human IgG1, kappa)
heavy 1: not shown
heavy 2: not shown
light: DIVMTQSPLSLPVTPGEPASISCQASESLVHSNRNTYLHWYLQKPGQSPQLLIYKVSNRFSGVPDRFSGSGSGTDFTLKISRVEAEDVGVYYCSQNTHVPPTFGQGTKVEIERTVAAPSVFIFPPSDEQLKSGTASVVCLLNNFYPREAKVQWKVDNALQSGNSQESVTEQDSKDSTYSLSSTLTLSKADYEKHKVYACEVTHQGLSSPVTKSFNRGEC
notes: as for B1
In the case of B3, in experiment [1], the He/Con_1a is 106 % of HeCon Ab (GpH7-A5/GpH7-B3/GpL16-k0 = 100). Also, the He/Con_2b in experiment [2] was 79.5 % of HeCon Ab (GpH7-A5/GpH7-B3/GpL16-k0 = 100).

B4: GpH7-A5/GpH7-B3 variant Y300_01G/GpL16-k0 (antibody, human IgG1, kappa)
heavy 1: not shown
heavy 2: not shown
light: DIVMTQSPLSLPVTPGEPASISCQASESLVHSNRNTYLHWYLQKPGQSPQLLIYKVSNRFSGVPDRFSGSGSGTDFTLKISRVEAEDVGVYYCSQNTHVPPTFGQGTKVEIERTVAAPSVFIFPPSDEQLKSGTASVVCLLNNFYPREAKVQWKVDNALQSGNSQESVTEQDSKDSTYSLSSTLTLSKADYEKHKVYACEVTHQGLSSPVTKSFNRGEC
notes: as for B1
B4: in experiment [1], the He/Con_1a was 116 % of HeCon Ab (GpH7-A5/GpH7-B3/GpL16-k0 = 100). Moreover, in experiment [2], the He/Con_2b is 48.4 % of HeCon Ab (GpH7-A5/GpH7-B3/GpL16-k0 = 100).

B5: GpH7-A5/GpH7-B3 variant Y300_02A/GpL16-k0 (antibody, human IgG1, kappa)
heavy 1: not shown
heavy 2: not shown
light: DIVMTQSPLSLPVTPGEPASISCQASESLVHSNRNTYLHWYLQKPGQSPQLLIYKVSNRFSGVPDRFSGSGSGTDFTLKISRVEAEDVGVYYCSQNTHVPPTFGQGTKVEIERTVAAPSVFIFPPSDEQLKSGTASVVCLLNNFYPREAKVQWKVDNALQSGNSQESVTEQDSKDSTYSLSSTLTLSKADYEKHKVYACEVTHQGLSSPVTKSFNRGEC
notes: as for B1
With B5, the He/Con_1a in experiment [1] was 112 % of HeCon Ab (GpH7-A5/GpH7-B3/GpL16-k0 = 100). Besides, in experiment [2], the He/Con_2b is 69.2 % of HeCon Ab (GpH7-A5/GpH7-B3/GpL16-k0 = 100).

B6: GpH7-A5/GpH7-B3 variant Y296_09D/GpL16-k0 (antibody, human IgG1, kappa)
heavy 1: not shown
heavy 2: not shown
light: DIVMTQSPLSLPVTPGEPASISCQASESLVHSNRNTYLHWYLQKPGQSPQLLIYKVSNRFSGVPDRFSGSGSGTDFTLKISRVEAEDVGVYYCSQNTHVPPTFGQGTKVEIERTVAAPSVFIFPPSDEQLKSGTASVVCLLNNFYPREAKVQWKVDNALQSGNSQESVTEQDSKDSTYSLSSTLTLSKADYEKHKVYACEVTHQGLSSPVTKSFNRGEC
notes: as for B1
Consider B6, for which the He/Con_1a in experiment [1] is 106 % of HeCon Ab (GpH7-A5/GpH7-B3/GpL16-k0 = 100). Further, the He/Con_2b in experiment [2] is 98.9 % of HeCon Ab (GpH7-A5/GpH7-B3/GpL16-k0 = 100).

B7: GpH7-A5/GpH7-B3 variant Y296_10E/GpL16-k0 (antibody, human IgG1, kappa)
heavy 1: not shown
heavy 2: not shown
light: DIVMTQSPLSLPVTPGEPASISCQASESLVHSNRNTYLHWYLQKPGQSPQLLIYKVSNRFSGVPDRFSGSGSGTDFTLKISRVEAEDVGVYYCSQNTHVPPTFGQGTKVEIERTVAAPSVFIFPPSDEQLKSGTASVVCLLNNFYPREAKVQWKVDNALQSGNSQESVTEQDSKDSTYSLSSTLTLSKADYEKHKVYACEVTHQGLSSPVTKSFNRGEC
notes: as for B1
As to B7, the He/Con_1a in experiment [1] is 106 % of HeCon Ab (GpH7-A5/GpH7-B3/GpL16-k0 = 100). Besides, the He/Con_2b in experiment [2] is 98 % of HeCon Ab (GpH7-A5/GpH7-B3/GpL16-k0 = 100).

B8: GpH7-A5/GpH7-B3 variant Y300_09D/GpL16-k0 (antibody, human IgG1, kappa)
heavy 1: not shown
heavy 2: not shown
light: DIVMTQSPLSLPVTPGEPASISCQASESLVHSNRNTYLHWYLQKPGQSPQLLIYKVSNRFSGVPDRFSGSGSGTDFTLKISRVEAEDVGVYYCSQNTHVPPTFGQGTKVEIERTVAAPSVFIFPPSDEQLKSGTASVVCLLNNFYPREAKVQWKVDNALQSGNSQESVTEQDSKDSTYSLSSTLTLSKADYEKHKVYACEVTHQGLSSPVTKSFNRGEC
notes: as for B1
For B8, the He/Con_1a in experiment [1] is 112 % of HeCon Ab (GpH7-A5/GpH7-B3/GpL16-k0 = 100). Also, the He/Con_2b in experiment [2] is 93.2 % of HeCon Ab (GpH7-A5/GpH7-B3/GpL16-k0 = 100).

B9: GpH7-A5/GpH7-B3 variant Y296_13S/GpL16-k0 (antibody, human IgG1, kappa)
heavy 1: not shown
heavy 2: not shown
light: DIVMTQSPLSLPVTPGEPASISCQASESLVHSNRNTYLHWYLQKPGQSPQLLIYKVSNRFSGVPDRFSGSGSGTDFTLKISRVEAEDVGVYYCSQNTHVPPTFGQGTKVEIERTVAAPSVFIFPPSDEQLKSGTASVVCLLNNFYPREAKVQWKVDNALQSGNSQESVTEQDSKDSTYSLSSTLTLSKADYEKHKVYACEVTHQGLSSPVTKSFNRGEC
notes: as for B1
As for B9, the He/Con_1a in experiment [1] was 105 % of HeCon Ab (GpH7-A5/GpH7-B3/GpL16-k0 = 100). Also, in experiment [2], the He/Con_2b was 86.3 % of HeCon Ab (GpH7-A5/GpH7-B3/GpL16-k0 = 100).

B10: GpH7-A5/GpH7-B3 variant Y300_11K/GpL16-k0 (antibody, human IgG1, kappa)
heavy 1: not shown
heavy 2: not shown
light: DIVMTQSPLSLPVTPGEPASISCQASESLVHSNRNTYLHWYLQKPGQSPQLLIYKVSNRFSGVPDRFSGSGSGTDFTLKISRVEAEDVGVYYCSQNTHVPPTFGQGTKVEIERTVAAPSVFIFPPSDEQLKSGTASVVCLLNNFYPREAKVQWKVDNALQSGNSQESVTEQDSKDSTYSLSSTLTLSKADYEKHKVYACEVTHQGLSSPVTKSFNRGEC
notes: as for B1
For the molecule B10, the He/Con_1a in experiment [1] was 107 % of HeCon Ab (GpH7-A5/GpH7-B3/GpL16-k0 = 100). Further, the He/Con_2b in experiment [2] is 51.6 % of HeCon Ab (GpH7-A5/GpH7-B3/GpL16-k0 = 100).

The values above are taken from patent US20150344570A1 (published 2015).
